Data from US20260070975A1 (SANTA ANA BIO, published 2026).

How the values were obtained:
Assay in all cases: flow cytometry on HEK293 cells expressing the target
[1] = target: T1, siglec 8 expressed on HEK293 cells (UniProt Q9NYZ4 17-499, limits assumed)
T1 construct: whole, on cells; also called Siglec-6 family member
Experimental: (§1) Cultured HEK293 cells expressing human siglec-6, cynomolgus siglec-6, or siglec 6 family members were resuspended in FACS Blocking Buffer (PBS+10% normal human serum) for 30 minutes. Following washing, cells were incubated with siglec-6 antibodies in FACS Buffer (PBS+0.5% bovine serum albumin+0.09% sodium azide) and incubated at 4° C. for 30 minutes, washed and incubated with PE-labeled anti-human secondary antibody. Cells were incubated at 4° C. for 30 minutes in the dark. Following washing, cytofluorimetric analysis was conducted using a BD FACS Symphony A3 (BD Biosciences). Cells were sorted by scatter properties and separated for single cell analysis using side scatter width vs side scatter area. Antibody binding to cells was quantitated by measuring fluorescent emissions of excitation wavelength of 561 nm using a 586/15 nm filter. Data analysis was performed using FlowJo Software.

[2] = target: T2, siglec 11 expressed on HEK293 cells (UniProt Q96RL6 28-698, limits assumed)
T2 construct: whole, on cells; also called Siglec-6 family member
T2 sequence (looked up): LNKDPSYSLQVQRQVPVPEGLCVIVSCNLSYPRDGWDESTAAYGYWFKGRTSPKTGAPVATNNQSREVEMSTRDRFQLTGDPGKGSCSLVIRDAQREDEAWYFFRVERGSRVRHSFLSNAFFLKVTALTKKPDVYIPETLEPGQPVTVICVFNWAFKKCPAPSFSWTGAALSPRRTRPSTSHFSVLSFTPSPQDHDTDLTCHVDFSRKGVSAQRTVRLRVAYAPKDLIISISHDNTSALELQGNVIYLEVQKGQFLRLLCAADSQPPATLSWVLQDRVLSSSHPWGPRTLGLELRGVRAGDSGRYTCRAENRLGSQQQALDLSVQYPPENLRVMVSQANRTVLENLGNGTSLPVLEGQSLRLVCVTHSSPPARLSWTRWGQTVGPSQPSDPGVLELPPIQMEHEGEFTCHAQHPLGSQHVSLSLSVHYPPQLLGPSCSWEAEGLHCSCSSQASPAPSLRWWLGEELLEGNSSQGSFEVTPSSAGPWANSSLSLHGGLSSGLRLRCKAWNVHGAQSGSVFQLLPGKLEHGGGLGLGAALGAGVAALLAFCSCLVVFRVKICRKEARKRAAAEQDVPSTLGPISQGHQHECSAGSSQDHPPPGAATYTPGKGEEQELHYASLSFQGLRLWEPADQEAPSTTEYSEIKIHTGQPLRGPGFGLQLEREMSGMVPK
Experimental: as §1

[3] = target: T3, siglec 1 expressed on HEK293 cells (UniProt Q9BZZ2 20-1709, limits assumed)
T3 construct: whole, on cells; also called Siglec-6 family member
T3 sequence (Q9BZZ2 20-1709 limits assumed): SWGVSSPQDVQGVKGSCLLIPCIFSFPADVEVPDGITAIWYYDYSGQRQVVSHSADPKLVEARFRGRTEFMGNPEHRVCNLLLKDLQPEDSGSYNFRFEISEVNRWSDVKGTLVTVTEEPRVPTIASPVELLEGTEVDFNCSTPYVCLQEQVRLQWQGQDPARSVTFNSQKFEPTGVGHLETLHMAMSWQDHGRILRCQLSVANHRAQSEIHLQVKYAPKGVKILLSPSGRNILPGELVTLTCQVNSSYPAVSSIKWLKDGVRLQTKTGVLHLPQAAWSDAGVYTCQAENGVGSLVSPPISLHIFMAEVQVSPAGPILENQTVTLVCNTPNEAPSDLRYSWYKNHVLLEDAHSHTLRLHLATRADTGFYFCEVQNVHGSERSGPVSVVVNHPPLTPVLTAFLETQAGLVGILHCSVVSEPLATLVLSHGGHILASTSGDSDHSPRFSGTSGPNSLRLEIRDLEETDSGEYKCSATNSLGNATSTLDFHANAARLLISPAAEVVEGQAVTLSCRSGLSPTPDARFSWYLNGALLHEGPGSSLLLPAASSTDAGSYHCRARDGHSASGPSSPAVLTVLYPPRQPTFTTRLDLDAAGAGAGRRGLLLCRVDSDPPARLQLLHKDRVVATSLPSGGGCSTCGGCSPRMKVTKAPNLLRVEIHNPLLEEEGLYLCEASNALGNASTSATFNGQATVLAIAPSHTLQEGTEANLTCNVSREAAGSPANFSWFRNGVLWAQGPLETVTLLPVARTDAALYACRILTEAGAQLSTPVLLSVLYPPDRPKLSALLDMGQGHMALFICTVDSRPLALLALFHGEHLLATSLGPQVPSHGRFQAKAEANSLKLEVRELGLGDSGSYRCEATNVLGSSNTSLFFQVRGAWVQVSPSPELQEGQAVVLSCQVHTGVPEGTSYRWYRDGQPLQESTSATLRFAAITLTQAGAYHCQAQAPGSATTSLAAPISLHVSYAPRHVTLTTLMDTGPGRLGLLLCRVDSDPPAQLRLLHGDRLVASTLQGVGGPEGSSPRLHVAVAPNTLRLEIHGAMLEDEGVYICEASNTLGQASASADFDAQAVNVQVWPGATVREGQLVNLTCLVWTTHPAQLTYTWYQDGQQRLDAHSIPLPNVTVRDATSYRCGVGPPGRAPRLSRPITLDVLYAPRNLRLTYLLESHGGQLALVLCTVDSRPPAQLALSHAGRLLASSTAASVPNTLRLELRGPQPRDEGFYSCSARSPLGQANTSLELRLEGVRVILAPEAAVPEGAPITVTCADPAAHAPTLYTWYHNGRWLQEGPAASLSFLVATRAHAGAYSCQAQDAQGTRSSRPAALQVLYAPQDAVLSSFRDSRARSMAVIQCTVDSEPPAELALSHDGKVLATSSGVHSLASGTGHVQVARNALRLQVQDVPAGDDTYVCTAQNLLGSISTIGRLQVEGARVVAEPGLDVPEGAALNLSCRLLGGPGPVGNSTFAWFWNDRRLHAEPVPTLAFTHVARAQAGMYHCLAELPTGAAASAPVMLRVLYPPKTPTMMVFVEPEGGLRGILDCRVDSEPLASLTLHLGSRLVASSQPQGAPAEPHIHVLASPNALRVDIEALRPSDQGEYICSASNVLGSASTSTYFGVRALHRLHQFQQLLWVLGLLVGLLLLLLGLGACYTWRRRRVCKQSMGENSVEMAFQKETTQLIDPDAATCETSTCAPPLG
Experimental: as §1

[4] = target: T4, siglec 14 expressed on HEK293 cells (UniProt Q08ET2 17-396, limits assumed)
T4 construct: whole, on cells; also called Siglec-6 family member
T4 sequence (looked up): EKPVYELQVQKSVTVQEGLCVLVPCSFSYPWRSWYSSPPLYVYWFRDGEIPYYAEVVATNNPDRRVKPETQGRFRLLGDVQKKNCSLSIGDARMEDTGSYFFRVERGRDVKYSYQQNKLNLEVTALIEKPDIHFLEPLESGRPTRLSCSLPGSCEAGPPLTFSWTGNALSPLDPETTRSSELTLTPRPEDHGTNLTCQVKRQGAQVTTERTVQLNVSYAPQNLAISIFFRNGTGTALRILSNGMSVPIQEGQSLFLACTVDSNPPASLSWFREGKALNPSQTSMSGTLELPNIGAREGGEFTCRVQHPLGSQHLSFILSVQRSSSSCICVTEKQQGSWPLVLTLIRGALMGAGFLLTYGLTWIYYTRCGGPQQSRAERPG
Experimental: as §1

[5] = target: T5, siglec 5 expressed on HEK293 cells (UniProt O15389 17-551, limits assumed)
T5 construct: whole, on cells; also called Siglec-6 family member
T5 sequence (looked up): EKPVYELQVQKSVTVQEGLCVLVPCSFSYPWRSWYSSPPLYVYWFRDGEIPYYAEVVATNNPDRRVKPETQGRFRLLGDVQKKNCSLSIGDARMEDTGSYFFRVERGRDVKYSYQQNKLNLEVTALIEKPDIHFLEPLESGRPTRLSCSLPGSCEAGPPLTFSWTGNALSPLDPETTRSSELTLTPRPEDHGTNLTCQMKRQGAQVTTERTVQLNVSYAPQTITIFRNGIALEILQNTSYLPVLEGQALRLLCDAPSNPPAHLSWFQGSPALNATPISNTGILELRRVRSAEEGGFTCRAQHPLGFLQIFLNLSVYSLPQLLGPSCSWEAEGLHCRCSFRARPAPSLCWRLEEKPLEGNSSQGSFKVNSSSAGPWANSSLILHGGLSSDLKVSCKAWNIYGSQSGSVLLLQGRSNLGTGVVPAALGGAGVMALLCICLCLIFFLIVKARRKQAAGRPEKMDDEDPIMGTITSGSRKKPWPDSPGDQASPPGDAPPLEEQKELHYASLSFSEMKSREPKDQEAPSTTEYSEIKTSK
Experimental: as §1

[6] = target: T6, siglec 9 expressed on HEK293 cells (UniProt Q9Y336 18-463, limits assumed)
T6 construct: whole, on cells; also called Siglec-6 family member
T6 sequence (Q9Y336 18-463 limits assumed): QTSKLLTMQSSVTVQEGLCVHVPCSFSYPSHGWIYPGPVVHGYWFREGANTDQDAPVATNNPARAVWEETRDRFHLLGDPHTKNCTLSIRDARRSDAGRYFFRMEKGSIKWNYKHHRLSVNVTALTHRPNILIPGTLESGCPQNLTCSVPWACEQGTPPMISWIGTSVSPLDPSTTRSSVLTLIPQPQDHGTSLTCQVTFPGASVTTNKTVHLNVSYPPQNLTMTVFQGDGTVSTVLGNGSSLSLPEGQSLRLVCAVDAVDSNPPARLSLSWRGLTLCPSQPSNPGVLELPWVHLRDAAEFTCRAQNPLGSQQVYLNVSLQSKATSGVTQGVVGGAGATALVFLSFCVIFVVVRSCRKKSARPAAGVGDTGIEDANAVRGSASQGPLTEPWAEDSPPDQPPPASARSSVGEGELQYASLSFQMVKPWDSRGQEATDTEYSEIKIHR
Experimental: as §1

[7] = target: T7, siglec 15 expressed on HEK293 cells (UniProt Q6ZMC9 20-328, limits assumed)
T7 construct: whole, on cells; also called Siglec-6 family member
T7 sequence (looked up): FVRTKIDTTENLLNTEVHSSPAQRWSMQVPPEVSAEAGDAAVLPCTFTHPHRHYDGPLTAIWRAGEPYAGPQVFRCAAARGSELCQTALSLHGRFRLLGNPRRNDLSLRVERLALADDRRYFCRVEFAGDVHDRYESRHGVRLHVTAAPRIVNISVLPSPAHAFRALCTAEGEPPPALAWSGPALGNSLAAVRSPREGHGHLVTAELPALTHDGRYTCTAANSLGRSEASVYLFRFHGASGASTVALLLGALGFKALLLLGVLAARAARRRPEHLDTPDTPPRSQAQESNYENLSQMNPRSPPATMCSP
Experimental: as §1

Measured: binding result

T1 sequence (Q9NYZ4 17-499 limits assumed): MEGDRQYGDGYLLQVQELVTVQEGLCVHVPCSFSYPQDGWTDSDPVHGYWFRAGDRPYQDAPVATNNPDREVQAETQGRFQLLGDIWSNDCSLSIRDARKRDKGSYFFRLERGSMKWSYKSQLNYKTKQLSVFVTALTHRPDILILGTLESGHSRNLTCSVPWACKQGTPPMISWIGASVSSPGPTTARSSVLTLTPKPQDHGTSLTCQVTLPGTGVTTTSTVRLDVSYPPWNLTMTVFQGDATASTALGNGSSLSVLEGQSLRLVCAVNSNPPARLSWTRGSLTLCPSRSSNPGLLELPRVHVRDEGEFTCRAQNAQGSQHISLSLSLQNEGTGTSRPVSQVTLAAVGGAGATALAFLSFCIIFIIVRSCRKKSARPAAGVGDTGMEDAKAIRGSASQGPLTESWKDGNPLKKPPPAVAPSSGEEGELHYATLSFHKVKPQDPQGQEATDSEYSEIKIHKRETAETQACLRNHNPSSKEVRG

B1: hRND-2 (antibody, human IgG1, kappa, V domains shown)
VH: QVQLVQSGAEVKKPGASVKVSCKASGYAFTSYWMHWVRQAPGQRLEWMGEIYPTNGGTTYAQKFQGRVTMTVDKSTSTAYMELSRLRSDDTAVYYCTIEDFYAMDYWGQGTTVTVSS
VL: DIVMTQTPLSLSVTPGQPASISCKSSQSLLDSDGKTSLNWLLQKPGQSPQRLIYLVSKLDSGVPDRFSGSGSGTDFTLKISRVEAEDVGVYYCWQGTHFPYTFGQGTKLEIKR
notes: also called humanized RND-2; hRND-H2 / hRND-L3; copies: 2 + 2
no binding: [1] | [2] | [3] | [4] | [5] | [6] | [7]

B2: hRND-4 (antibody, human IgG1, kappa, V domains shown)
VH: QVQLVQSGAEVKKPGASVKVSCKASGYAFTSYWMHWVRQAPGQRLEWMGEIYPTNGGTTYNEKFKRRVTMTVDKSTSTAYMELSRLRSDDTAVYYCTIEDFYAMDYWGQGTTVTVSS
VL: DIVMTQTPLSLSVTPGQPASISCKSSQSLLDSDGKTSLNWLLQKPGQSPQRLIYLVSKLDSGVPDRFSGSGSGTDFTLKISRVEAEDVGVYYCWQGTHFPYTFGQGTKLEIKR
notes: also called humanized RND-4; hRND-H2b / hRND-L3; copies: 2 + 2
no binding: [1] | [2] | [3] | [4] | [5] | [6] | [7]

B3: hRND-3 (antibody, human IgG1, kappa, V domains shown)
VH: QVQLVQSGAEVKKPGASVKLSCKASGYAFTSYWMHWVRQAPGQRLEWIGEIYPTNGGTTYAQKFQGRATLTVDKSTSTAYMELSRLRSDDTAVYYCTIEDFYAMDYWGQGTTVTVSS
VL: DIVMTQTPLSLSVTPGQPASISCKSSQSLLDSDGKTSLNWLLQKPGQSPQRLIYLVSKLDSGVPDRFSGSGSGTDFTLKISRVEAEDVGVYYCWQGTHFPYTFGQGTKLEIKR
notes: also called humanized RND-3; hRND-H3 / hRND-L3; copies: 2 + 2
no binding: [1] | [2] | [3] | [4] | [5] | [6] | [7]

B4: hRND-5 (antibody, human IgG1, kappa, V domains shown)
VH: QVQLVQSGAEVKKPGASVKLSCKASGYAFTSYWMHWVRQAPGQRLEWIGEIYPTNGGTTYNEKFKRRATLTVDKSTSTAYMELSRLRSDDTAVYYCTIEDFYAMDYWGQGTTVTVSS
VL: DIVMTQTPLSLSVTPGQPASISCKSSQSLLDSDGKTSLNWLLQKPGQSPQRLIYLVSKLDSGVPDRFSGSGSGTDFTLKISRVEAEDVGVYYCWQGTHFPYTFGQGTKLEIKR
notes: also called humanized RND-5; hRND-H3b / hRND-L3; copies: 2 + 2
no binding: [1] | [2] | [3] | [4] | [5] | [6] | [7]
